Experimental data as given in US20250197483A1 (US Dept. of Health and Human Services, published 2025).

Target: T1, FcRn/β2m heterodimer (UniProt P55899 24-297; P61769 21-119)
T1 construct: also called His-tagged FcRn/β2m; neonatal Fc receptor
Assay: BLI (Octet), pH 7.4: Ni-NTA biosensors coated with His-tagged FcRn/β2m dipped into wells with the antibody as analyte
Source text: Fc-FcRn binding kinetics by bio-layer interferometry. We used Octet HTX system (ForteBio) to measure the Fc-FcRn binding kinetics with FcRn/2m as ligand. […] For reference, we repeated the entire steps mentioned above but with blank Ni-NTA biosensors. Binding kinetic sensograms were globally fitted with 1:1 model and double referencing to extract kinetic parameters.

T1 sequence (P55899 24-297 limits assumed, chain 1 of 2): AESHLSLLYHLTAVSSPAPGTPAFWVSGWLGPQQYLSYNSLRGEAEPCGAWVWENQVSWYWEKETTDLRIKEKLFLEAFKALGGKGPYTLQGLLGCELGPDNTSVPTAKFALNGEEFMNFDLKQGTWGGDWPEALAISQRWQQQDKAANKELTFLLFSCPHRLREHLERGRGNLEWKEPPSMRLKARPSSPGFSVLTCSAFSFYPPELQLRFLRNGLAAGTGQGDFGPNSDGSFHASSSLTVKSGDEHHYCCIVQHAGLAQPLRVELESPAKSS
T1 sequence (P61769 21-119 limits assumed, chain 2 of 2): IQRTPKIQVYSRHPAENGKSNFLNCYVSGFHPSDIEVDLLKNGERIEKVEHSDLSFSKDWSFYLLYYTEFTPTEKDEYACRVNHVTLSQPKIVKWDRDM

Binder	Kd [µM]
VRC07-523LS.v1 (antibody, human IgG1, kappa) heavy: not shown light: LTQSPGTLSLSPGETAIISCRTSQYGSLAWYQQRPGQAPRLVIYSGSTRAAGIPDRFSGSRWGPDYNLTISNLESGDFGVYYCQQYEFFGQGTKVQVDIKRTVAAPSVFIFPPSDEQLKSGTASVVCLLNNFYPREAKVQWKVDNALQSGNSQESVTEQDSKDSTYSLSSTLTLSKADYEKHKVYACEVTHQGLSSPVTKSFNRGEC	0.93
VRC07-523LS.v11 (antibody, human IgG1, kappa) heavy: not shown light: LTQSPGTLSLSPGETAIISCDTSQYGSLAWYQQRPGQAPRLVIYSGSTRAAGIPDRFSGSRWGPDYNLTISNLESGDFGVYYCQQYEFFGQGTKVQVDIKRTVAAPSVFIFPPSDEQLKSGTASVVCLLNNFYPREAKVQWKVDNALQSGNSQESVTEQDSKDSTYSLSSTLTLSKADYEKHKVYACEVTHQGLSSPVTKSFNRGEC	3.96
VRC07-523LS.v34 (antibody, human IgG1, kappa) heavy: not shown light: LTQSPGTLSLSPGETAIISCETSQYGSLAWYQQRPGQAPRLVIYSGSTRAAGIPDRFSGSRWGPDYNLTISNLESGDFGVYYCQQYEFFGQGTKVQVDIKRTVAAPSVFIFPPSDEQLKSGTASVVCLLNNFYPREAKVQWKVDNALQSGNSQESVTEQDSKDSTYSLSSTLTLSKADYEKHKVYACEVTHQGLSSPVTKSFNRGEC	6
